The target of assay [1] is T1, endogenous gliomedin on cultured rat Schwann cells (rat, UniProt Q80WL1 1-549).
T1 construct: whole, on cells; also called Gldn
T1 sequence (looked up): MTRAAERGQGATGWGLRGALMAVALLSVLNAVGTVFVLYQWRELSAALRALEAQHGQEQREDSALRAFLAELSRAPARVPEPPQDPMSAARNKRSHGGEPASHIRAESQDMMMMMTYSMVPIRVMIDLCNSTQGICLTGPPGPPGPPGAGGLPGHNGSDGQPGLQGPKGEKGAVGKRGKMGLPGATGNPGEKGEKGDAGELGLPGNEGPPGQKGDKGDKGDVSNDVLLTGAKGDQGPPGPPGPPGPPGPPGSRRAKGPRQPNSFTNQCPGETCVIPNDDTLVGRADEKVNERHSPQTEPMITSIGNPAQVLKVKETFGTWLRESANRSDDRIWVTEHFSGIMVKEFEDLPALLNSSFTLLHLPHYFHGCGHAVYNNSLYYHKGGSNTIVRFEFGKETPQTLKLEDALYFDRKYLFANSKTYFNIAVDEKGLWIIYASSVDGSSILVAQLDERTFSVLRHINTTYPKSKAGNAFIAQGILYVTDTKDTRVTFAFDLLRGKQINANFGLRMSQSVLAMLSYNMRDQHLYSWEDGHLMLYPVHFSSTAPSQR
The assay is described as follows: co-clustering on rat Schwann cells after aggregation of Necl1-Fc with a secondary antibody to human Fc. As for the experimental part: (§1) Binding experiments were done by incubating the cells with medium containing different the Fc-fusions proteins pre-incubated with anti human Fc-Cy3 as described previously (Eshed et al., 2005). For clustering experiments, purified DRG-neurons or isolated Schwann cells were incubated with medium containing the respective Fc-fusion protein as described above, washed once and grown for additional 24 (DRG) or 4 hours (Schwann) before fixing. Fc-perturbation experiments were preformed by adding […] purified proteins to the medium of dissociated DRG cultures 2 days before the induction of myelination. Fresh medium containing the Fc-fusion proteins was replaced every second day and the cultures were fixed and stained after 11-12 days of myelination.
To further determine whether Necl4 is the Schwann cell receptor for axonal Necls, we examined the ability of Necl1-Fc and Necl3-Fc to bind Schwann cells that were transfected with Necl4-specific siRNAs to block its expression (FIG. 10B). In contrast to Schwann cells transfected with a control siRNA, down-regulation of Necl4 in Schwann cells by siRNA abolished the binding of Necl1-Fc and Necl3-Fc. […] In a reciprocal set of experiments, reduction of Necl1 expression in DRG neurons by transfection of siRNA abolished the binding of Necl4-Fc (FIG. 11).

In assay [2] the target is T2, endogenous neurofascin on cultured DRG neurons (rat, UniProt P97685 25-1240).
T2 construct: whole, on cells
T2 sequence (looked up): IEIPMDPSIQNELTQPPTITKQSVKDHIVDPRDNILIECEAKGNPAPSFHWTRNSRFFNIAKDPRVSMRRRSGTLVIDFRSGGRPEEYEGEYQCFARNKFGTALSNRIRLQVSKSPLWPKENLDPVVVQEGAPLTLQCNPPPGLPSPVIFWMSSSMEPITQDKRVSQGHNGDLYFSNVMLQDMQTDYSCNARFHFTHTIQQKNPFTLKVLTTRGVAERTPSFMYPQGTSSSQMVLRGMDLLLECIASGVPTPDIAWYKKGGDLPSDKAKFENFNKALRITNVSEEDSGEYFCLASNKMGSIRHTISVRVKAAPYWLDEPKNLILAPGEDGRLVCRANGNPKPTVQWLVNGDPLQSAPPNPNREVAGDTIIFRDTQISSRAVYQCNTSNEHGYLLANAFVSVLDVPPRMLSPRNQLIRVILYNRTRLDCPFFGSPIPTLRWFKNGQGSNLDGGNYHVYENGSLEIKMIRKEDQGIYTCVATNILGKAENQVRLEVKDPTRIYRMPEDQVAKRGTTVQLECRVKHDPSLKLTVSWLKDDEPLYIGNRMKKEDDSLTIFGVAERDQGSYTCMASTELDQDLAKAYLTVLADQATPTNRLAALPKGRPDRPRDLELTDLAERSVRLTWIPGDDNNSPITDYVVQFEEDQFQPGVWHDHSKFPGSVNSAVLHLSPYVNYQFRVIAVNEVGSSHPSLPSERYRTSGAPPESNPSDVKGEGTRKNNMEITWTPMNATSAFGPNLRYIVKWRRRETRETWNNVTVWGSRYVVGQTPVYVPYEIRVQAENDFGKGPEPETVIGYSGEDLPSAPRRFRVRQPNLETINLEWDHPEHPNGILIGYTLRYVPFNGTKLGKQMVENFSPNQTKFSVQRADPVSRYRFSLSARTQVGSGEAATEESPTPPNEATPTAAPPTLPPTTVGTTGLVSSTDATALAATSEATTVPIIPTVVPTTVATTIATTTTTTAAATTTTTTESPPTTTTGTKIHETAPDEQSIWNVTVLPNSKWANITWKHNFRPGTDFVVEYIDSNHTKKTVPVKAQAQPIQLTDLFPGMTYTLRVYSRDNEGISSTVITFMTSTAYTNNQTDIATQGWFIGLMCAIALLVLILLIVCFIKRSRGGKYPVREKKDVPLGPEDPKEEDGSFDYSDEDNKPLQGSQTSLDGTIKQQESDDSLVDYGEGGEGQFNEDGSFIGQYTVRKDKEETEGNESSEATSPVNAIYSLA
In words: co-clustering on DRG neurons after aggregation of Necl4-Fc. How it is done: as §1

Data on two molecules can be found in patent publication US20100150924A1 (published 2010).

B1: Necl1-Fc (extracellular domain of Necl1 fused to the constant region of human IgG1) (Fc fusion)
chain: NLSQDGYWQEQDLELGTPAPLEEALSSTVWSNPDLLASQDSQPWTSDETVVAGGTVVLKCQVKDHEDSSLQWSNPAQQTLYFGEKRALRDNRIQLVSSTPHELSISISNVALADEGEYTCSIFTMPVRTAKSLVTVLGIPQKPIITGYKSSLREKETATLNCQSSGSKPAAQLAWRKGDQELHGDQTRIQEDPNGKTFTVSSSVSFQVTRDDDGANVVCSVNHESLKGADRSTSQRIEVLYTPTAMIRPEPAHPREGQKLLLHCEGRGNPVPQQYVWVKEGSEPPLKMTQESALIFPFLNKSDSGTYGCTATSNMGSYTAYFTLNVNDPSPVPSSSST
notes: Produced in HEK 293T cells; also called soluble Necl1; Nel1-Fc; not shown: constant region (Fc) of human IgG1
As to B1, the binding result in assay [1] is “no binding”.

B2: Necl4-Fc (extracellular domain of Necl4 fused to the constant region of human IgG1) (Fc fusion)
chain: QEVQTENVTVAEGGVAEITCRLHQYDGSIVVIQNPARQTLFFNGTRALKDERFQLEEFSPRRVRIRLSDARLEDEGGYFCQLYTEDTHHQIATLTVLVAPENPVVEVREQAVEGGEVELSCLVPRSRPAAVLRWYRDRKELKGVSSGQENGKVWSVASTVRFRVDRKDDGGIVICEAQNQALPSGHSKQTQYVLDVQYSPTARIHASQAVVREGDTLVLTCAVTGNPRPNQIRWNRGNESLPERAEAVGETLTLPGLVSADNGTYTCEAANKHGHARALYVLVVYDPGAVVEAQTSVPY
notes: also called soluble Necl-4; soluble Necl4; not shown: constant region (Fc) of human IgG1
Turning to B2, the binding result in assay [2] is “no binding”.
